# Results published in PMC3684423 (Structure (London, England : 1993), 2012).
# Where no end group is shown, it is not given here. [ ]: non-standard residue; d: D form. pT = C[C@@H](OP(=O)(O)O)[C@H](N)C(=O)O
# T1: N-terminal Smac/DIABLO(1–15) peptide
# T1 sequence (Q9NR28 22-36, species assumed, looked up): LCVPVVANFKKRCFS
# How the values were obtained:
# [1] = target: T1, N-terminal Smac/DIABLO(1–15) peptide; test: ITC
# Survivin 1-142 = Survivin 1-142 (UniProt O15392); test: peptide-bead pull-down, Coomassie stain
# Survivin H80A mutant = Survivin H80A mutant (human, UniProt O15392 1-142, H80A); test: ITC
# Survivin L64A mutant = Survivin L64A mutant (human, UniProt O15392 1-142, L64A); test: ITC
# Survivin E63A mutant = Survivin E63A mutant (human, UniProt O15392 1-142, E63A); test: ITC
# Survivin W67A mutant = Survivin W67A mutant (human, UniProt O15392 1-142, W67A); test: ITC
# Chain of Survivin W67A mutant (O15392 whole entry W67A): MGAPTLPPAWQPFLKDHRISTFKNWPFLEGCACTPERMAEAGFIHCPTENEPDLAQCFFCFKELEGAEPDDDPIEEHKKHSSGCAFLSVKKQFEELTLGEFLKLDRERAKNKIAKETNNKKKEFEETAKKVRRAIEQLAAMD
# Chain of human Survivin (wild type) (O15392 whole entry): as the sequence (O15392 whole entry W67A) above, with A67W counted along it
# Chain of Survivin L64A mutant (O15392 whole entry L64A): as the sequence (O15392 whole entry W67A) above, with L64A, A67W counted along it
# Chain of Survivin H80A mutant (O15392 whole entry H80A): as the sequence (O15392 whole entry W67A) above, with A67W, H80A counted along it
# Chain of Survivin E63A mutant (O15392 whole entry E63A): as the sequence (O15392 whole entry W67A) above, with E63A, A67W counted along it
molecule,measurement,setting,value
Survivin(K62Y/H80W) double mutant (from UniProt O15392 1-142) (natural protein),Kd,[1],19.8 µM
same,dH,[1],-4.44 kcal/mol
histone H3 (from UniProt P68431) H3T3ph peptide beads,binding against the reference,"Survivin 1-142; reference: unmodified H3 peptide beads, sites T3",same
histone H3 (from UniProt P68431) S10ph H3 peptide beads (T3 state not stated),binding against the reference,"Survivin 1-142; reference: H3 peptide beads without S10ph, sites S10",same
human Survivin (wild type) (from UniProt O15392 1-142) (natural protein),Kd,[1],121 µM
same,dH,[1],-3.48 kcal/mol
"AR[pT]KQTARKSTGGKA (peptide, UniProt P68431 2-16, looked up) [H3(1–15)T3ph peptide]",Kd,Survivin H80A mutant,> 200 µM
same,Kd,Survivin L64A mutant,> 200 µM
same,Kd,Survivin E63A mutant,> 200 µM
same,Kd,Survivin W67A mutant,> 200 µM
